Columns and labels:
[1] = molecular target: T1, Bst DNA polymerase I large fragment (Geobacillus stearothermophilus, UniProt E1C9K5 3-580); experiment: X-ray crystallography; 0 min, before dATP soak; Co-crystals; P/T duplex annealed in Bst buffer (50 mM Tris-Cl pH 7.5, 150 mM NaCl, 1 mM EDTA, 10 mM BME) with 20 mM MgCl2; crystallization and soak conditions not in the material; conditions: protein: recombinant; tags: tagless; template 5' overhang 5 nt (GACGT) and 3' overhang 1 nt (A); 10 bp
[2] = molecular target: T1, Bst DNA polymerase I large fragment; experiment: X-ray crystallography; dATP and dCTP soak, 48 h, product binary complex; Co-crystals; P/T duplex annealed in Bst buffer (50 mM Tris-Cl pH 7.5, 150 mM NaCl, 1 mM EDTA, 10 mM BME) with 20 mM MgCl2; crystallization and soak conditions not in the material; conditions: protein: recombinant; tags: tagless; template 5' overhang 3 nt and 3' overhang 1 nt; 12 bp
[3] = molecular target: T1, Bst DNA polymerase I large fragment; experiment: X-ray crystallography; dATP soak, 120 min, product complex; Co-crystals; P/T duplex annealed in Bst buffer (50 mM Tris-Cl pH 7.5, 150 mM NaCl, 1 mM EDTA, 10 mM BME) with 20 mM MgCl2; crystallization and soak conditions not in the material; conditions: protein: recombinant; tags: tagless; template 5' overhang 4 nt and 3' overhang 1 nt; 11 bp

B1: P/T duplex (starting primer-template) (dsDNA)
DNA 1: GCGATCACGT
DNA 2: GACGTACGTGATCGCA
[1]
  binding result: binds

B2: P+2/T duplex (primer extended by dA and dC in crystallo) (dsDNA)
DNA 1: GCGATCACGTAC
DNA 2: GACGTACGTGATCGCA
[2]
  binding result: binds

B3: P+1/T duplex (primer extended by dA in crystallo) (dsDNA)
DNA 1: GCGATCACGTA
DNA 2: GACGTACGTGATCGCA
[3]
  binding result: binds
